The values that follow come from article PMC9771711 (Science (New York, N.Y.), 2021).

This experiment has as its target CCHFV Gc^1579 (Crimean-Congo hemorrhagic fever virus, …). Put plainly: BLI.

B1: ADI-36121 (as used in BLI) (antibody, V domains shown)
VH: EVQLLESGGDLVQPGGSLRLSCAASGFTFSSYVMSWVRQAPGKGLEWVSVIYRGGSTKYADSVKGRFTISRDDSKNTLYLQMNSLRVEDTAVYYCVKDPKAWLEPEWWGQGTLVTVSS
VL: DIQMTQSPSSLSASVGDRVTITCRASQSISKYLSWFQQKPGKAPNLLIYAASYLQSGVPSRFSGSGSGTDFTLTISSLQPEDFATYYCQQSYSNPRTFGQGTKVEIK
As to B1, the binding result is given as “binds”.
